Here are results for one substance from paper PMC4430413.

The target of the assay is monomeric Uox conjugated to HSA (HSA-conjugated Uox-W160.174AzF subunit of Uox-HSA) (Aspergillus flavus | human) (UniProt P02768). In words: co-purification by ion exchange chromatography, read by SDS-PAGE.
Chain of UniProt P02768 (P02768 whole entry, looked up): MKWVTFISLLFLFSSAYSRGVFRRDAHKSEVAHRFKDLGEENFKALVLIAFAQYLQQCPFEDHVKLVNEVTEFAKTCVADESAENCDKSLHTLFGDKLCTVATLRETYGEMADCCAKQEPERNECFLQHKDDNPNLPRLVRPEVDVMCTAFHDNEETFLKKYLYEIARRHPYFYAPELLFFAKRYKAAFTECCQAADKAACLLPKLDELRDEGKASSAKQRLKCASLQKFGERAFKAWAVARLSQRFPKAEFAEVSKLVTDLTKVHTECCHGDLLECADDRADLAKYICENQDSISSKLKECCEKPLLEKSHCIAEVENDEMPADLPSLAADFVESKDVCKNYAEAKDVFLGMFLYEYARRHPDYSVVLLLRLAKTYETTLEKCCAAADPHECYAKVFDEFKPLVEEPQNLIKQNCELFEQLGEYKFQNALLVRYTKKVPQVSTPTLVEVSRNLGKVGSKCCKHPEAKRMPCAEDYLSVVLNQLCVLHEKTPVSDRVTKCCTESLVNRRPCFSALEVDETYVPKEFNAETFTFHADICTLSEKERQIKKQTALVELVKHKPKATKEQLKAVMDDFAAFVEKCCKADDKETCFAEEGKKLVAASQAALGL

As to “AzF-incorporated urate oxidase (Uox-W160.174AzF) (enzyme)”, the molar ratio of unreacted Uox monomer to monomeric Uox conjugated to HSA was 2.5.
